From article PMC6379680, “The Leishmania PABP1–eIF4E4 interface: a novel 5′–3′ interaction architecture for trans-spliced mRNAs” (Nucleic Acids Research, 2018)
Ends that are not written are not given here.

Legend:
[1] = molecular target: eIF4G (Saccharomyces cerevisiae) (UniProt P39935); details: cited from earlier work
[2] = molecular target: eIF4E4(iv), an approximately 5 kDa region of the extended N-terminal domain of Leishmania major eIF4E4 (Leishmania major); assay: MST; labelled eIF4E4(iv) held constant, non-labelled PABP1 section varied (16 tubes); Nanotemper Monolith NT.115
[3] = molecular target: full-length Leishmania eIF4G3 (Leishmania major) (UniProt Q4QEK5); assay: fluorescence polarisation; fluorescence anisotropy, PTI QuantaMaster; Alexa-647-labelled eIF4G3, eIF4E4(v)::PABP1(J) added
[4] = molecular target: T1, PABP1(J), the PABC domain of Leishmania major PABP1 prepared as segment J (Leishmania major, UniProt E9AFX7 482-560); assay: MST; FITC-labelled synthetic 14mer peptides with PABP1(J); details: both partners purified
T1 construct: 15N,13C-labelled form used in NMR; also called PABP1 PABC domain; PABC1; source: E. coli NiCo21(DE3), synthetic reading frame, purified (cobalt IDA resin, gel filtration); also co-expressed with eIF4E4(v) from a dual expression plasmid
T1 sequence: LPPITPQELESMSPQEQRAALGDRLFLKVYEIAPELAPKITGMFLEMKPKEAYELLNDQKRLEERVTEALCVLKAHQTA

[5] = molecular target: eIF4E4(v):PABP1(J); assay: Fluorescence anisotropy, Alexa-647-labelled eIF4G3 binding to the complex eIF4E4(v):PABP1(J); design: species or system Leishmania; details: Alexa-647-labelled eIF4G3, eIF4E4(v)::PABP1(J) added, read-out: KD (average of calculated KD values)
Method: (§1) Microscale thermophoresis experiments were performed using eIF4E4(iv) or eIF4G3 labelled with a fluorescent tag (Monolith Protein Labeling Kit Red-Maleimide), or the eIF4G3 peptide […] labeled with fluorescein-5-isothiocyanate. The concentration of the fluorescently labelled protein (eIF4E4(iv)) was held constant, while the concentration of non-labelled ligand protein was varied. The experiment was conducted by preparing 16 tubes with various ratios of the interacting labelled/non-labelled proteins. The solutions were introduced into capillaries, which were then loaded into a Nanotemper Monolith NT.115 instrument for measurement. For the SPR experiments, eIF4E4(iv) was immobilized via amine coupling to a Biacore CM5 sensor chip (GE Healthcare Life Sciences) and titrations against PABP1(J) were performed in a Biacore T200 instrument. In order to maximise confidence in the calculated dissociation constant values (based on kON and kOFF values), two types of model were fitted to the raw data: a homogeneous 1:1 binding model, and a heterogeneous 1:1 two-ligand model. […] Fluorescence anisotropy measurements were performed using a PTI QuantaMaster fluorimeter. […]
(§2) Figure 5. Quantitative characterization of interactions of Leishmania cap-complex proteins. […] Fluorescence anisotropy measurements (C) detected binding of Alexa-647-labelled eIF4G3 to the complex eIF4E4(v):PABP1(J). […]

[6] = tested on: PABP1; assay: Microscale thermophoresis, Alexa-647-labelled eIF4G3 with PABP1; type: binding, Leishmania; details: Alexa-647-labelled eIF4G3 and PABP1
Method: as §1, §2

[7] = molecular target: T1, PABP1(J), the PABC domain of Leishmania …; assay: MST; labelled eIF4E4(iv) held constant, non-labelled PABP1 section varied (16 tubes); Nanotemper Monolith NT.115; details: both partners purified
[8] = molecular target: Leishmania major eIF4E4 segment (iv) (Leishmania major); assay: SPR; eIF4E4(iv) immobilised by amine coupling on a Biacore CM5 chip, PABP1(J) passed over, Biacore T200; homogeneous 1:1 binding model
[9] = molecular target: eIF4E4(iv); assay: Microscale thermophoresis of mutated PABP1(J) F525A with eIF4E4(iv); type: binding, Leishmania major
Method: as §1, with “For the SPR experiments, eIF4E4(iv) was immobilized via amine coupling to a Biacore CM5 sensor chip (GE Healthcare Life Sciences) and titrations against PABP1(J) were performed in a Biacore T200 instrument.” left out
We wanted to establish a quantitative understanding of the relative significance of interactions between the Leishmania cap-binding complex factors eIF4E4, eIF4G3 and PABP1 using protein domains or full-length proteins, rather than peptides. […]

Chain of eIF4G (Saccharomyces cerevisiae) (P39935 whole entry, the tested form may be a part): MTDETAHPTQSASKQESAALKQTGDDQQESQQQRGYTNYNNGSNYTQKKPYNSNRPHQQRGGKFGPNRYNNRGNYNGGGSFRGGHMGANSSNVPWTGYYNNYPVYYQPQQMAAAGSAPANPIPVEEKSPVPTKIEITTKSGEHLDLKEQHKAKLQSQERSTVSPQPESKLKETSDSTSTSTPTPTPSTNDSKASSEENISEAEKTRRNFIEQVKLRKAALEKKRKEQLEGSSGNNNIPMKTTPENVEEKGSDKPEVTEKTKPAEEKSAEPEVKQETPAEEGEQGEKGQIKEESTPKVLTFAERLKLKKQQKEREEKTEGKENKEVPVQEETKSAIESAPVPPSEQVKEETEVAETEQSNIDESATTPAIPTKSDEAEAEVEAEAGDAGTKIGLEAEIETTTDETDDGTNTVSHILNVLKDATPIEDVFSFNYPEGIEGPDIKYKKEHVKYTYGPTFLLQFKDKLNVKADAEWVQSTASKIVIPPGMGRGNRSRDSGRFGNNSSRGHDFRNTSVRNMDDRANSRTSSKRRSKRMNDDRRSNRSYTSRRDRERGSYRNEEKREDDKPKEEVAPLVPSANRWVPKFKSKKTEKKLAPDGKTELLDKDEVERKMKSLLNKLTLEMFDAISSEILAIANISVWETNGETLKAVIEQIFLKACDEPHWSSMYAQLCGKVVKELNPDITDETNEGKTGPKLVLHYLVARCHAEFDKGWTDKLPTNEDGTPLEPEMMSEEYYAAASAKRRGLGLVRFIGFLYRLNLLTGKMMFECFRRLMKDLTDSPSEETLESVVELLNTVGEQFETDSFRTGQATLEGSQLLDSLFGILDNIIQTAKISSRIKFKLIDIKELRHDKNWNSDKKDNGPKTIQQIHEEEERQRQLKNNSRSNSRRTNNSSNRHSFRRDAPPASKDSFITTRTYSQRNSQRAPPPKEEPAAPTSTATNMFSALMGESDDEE

For eIF4E (from UniProt P07260), the Kd [1] is listed as 0.0023 µM.

Work on “PABP1(J) F525A (from UniProt E9AFX7) (domain or fragment)” yielded a Kd [2] of 0.55 µM.

Work on “heterodimeric complex eIF4E4(v):PABP1(J) (from UniProt E9AFX7 482-560)” yielded a Kd [3] of 0.34 µM.

B1: eIF4E4 PAM2-motif FITC-labelled 14mer peptide, WT (peptide)
peptide: HHMNPNATEFMPGR
modifications: also: FITC label
notes: also called 'wild-type' peptide; 14mer eIF4E4 peptide; source: synthetic peptide (Thermo Fisher Scientific, HPLC-purified to 98%)
For B1, the Kd [4] was 0.033 ± 0.0009 µM.

B2: eIF4E4 PAM2-motif FITC-labelled 14mer peptide, E146A (peptide)
peptide: HHMNPNATAFMPGR
modifications: also: FITC label
notes: source: synthetic peptide (Thermo Fisher Scientific, HPLC-purified to 98%)
B2 showed a Kd [4] of 0.163 ± 0.0164 µM.

B3: eIF4G3: full-length Leishmania eIF4G3, Alexa-647-labelled (protein)
chain: MQFTVEQIRSVRNNYLEPPYPGFSLDEVVRRRRLTQTKLVRGENAWVAKGTAQTTEEWVQRLLHGTLNKLTEENKDIMIDKLLTKELFATEDIMNMVVNIIFKKALDEPENSKLYAGVCHSLALYEAKVLRDGHKGERPQSQLRDAIISTAQHEFRTLSKELSKMEDKSEEELEYERSNVMRRKRSNMRFIGELYLCTALTHSTMFTVMDLTMRCSDKTGFPSSENIELLAALLNTIGDRLDKNHKKTLDPYFTSLENFNKKSDCPYPPRIRFKIMDLLDLRKRGWGLKPKPVKAALPPSHGKDKKYATAPPPKKGGRDQGSAAAASKSWRDAATTKTGTAAAPAPSADKGLNGRGTSSAAPAANTAALSSSAASTAAATAPAGASFRDEASPQVPLVKFELRVASMFQEWVADRTNDVILHWVDQFNTCDRFFESESELCVAVAQEVIHSACTTTRKDAQREAFSFLVVGLYMIDTEVFDGFASALASAIEDGLLEDVPKFGERFMSMLRLTSTEQETRADVYFDAANVLRLTYNRLESPDDSAVDTLMSFWDRVPLPSTDEENMIRMDLDVVYSLCNPEGVQDGLEKLLSRIIHSMLQMQLMDAEVLDEFLCLDVEDGLCAKVIADYKERFPK
modifications: Alexa 647 label (Monolith Protein Labeling Kit Red-Maleimide) in the fluorescence anisotropy and MST experiments; left off: His12, end not stated, kept
notes: full-length Leishmania eIF4G3, Alexa-647-labelled
In the case of B3, the Kd [5] is reported as 0.34 µM and the “binding” value [6] is reported as “no binding could be detected”.

For PTRFSPATVPRHHMNPNATEFMPGRRNGPDGGLEALPTSTAD (domain or fragment, also: Alexa 647 label (Red-Maleimide) for MST), the Kd [7] was 0.022 µM.

B4: eIF4E4 PAM2-motif FITC-labelled 14mer peptide, N143A (peptide)
peptide: HHMNPAATEFMPGR
modifications: also: FITC label
notes: as for B2
With B4 the Kd [4] was 0.0692 ± 0.0049 µM.

B5: eIF4E4 PAM2-motif FITC-labelled 14mer peptide, F147A (peptide)
peptide: HHMNPNATEAMPGR
modifications: also: FITC label
notes: also called F147A mutant peptide; source: synthetic peptide (Thermo Fisher Scientific, HPLC-purified to 98%)
For B5, the Kd [4] was 0.127 ± 0.0134 µM.

B6: Leishmania major PABP1 segment J (PABC domain) (domain or fragment)
chain: LPPITPQELESMSPQEQRAALGDRLFLKVYEIAPELAPKITGMFLEMKPKEAYELLNDQKRLEERVTEALCVLKAHQTA
modifications: here or on the partner: 13C,15N-labelled in the NMR experiment
Molecule B6 has a Kd [8] of 0.16 µM.

B7: PABP1(J) F525A: PABC domain of Leishmania PABP1 (segment J) with phenylalanine 525 mutated to alanine (protein)
chain: LPPITPQELESMSPQEQRAALGDRLFLKVYEIAPELAPKITGMALEMKPKEAYELLNDQKRLEERVTEALCVLKAHQTA
In the case of B7, the Kd ([9]; eIF4E4(iv) + PABP1(J) F525A, average of three independent titrations) is reported as 0.55 µM and the “KD relative to the non-mutated PABP1(J) value” ([9]; ratio of KD values) is reported as 25 times.

B8: eIF4E4 PAM2-motif FITC-labelled 14mer peptide, M140A (peptide)
peptide: HHANPNATEFMPGR
modifications: also: FITC label
notes: as for B2
B8 showed a Kd [4] of 0.0343 ± 0.0013 µM.

B9: eIF4E4 PAM2-motif FITC-labelled 14mer peptide, M148A (peptide)
peptide: HHMNPNATEFAPGR
modifications: also: FITC label
notes: as for B2
With B9 the Kd [4] was 0.0628 ± 0.0031 µM.
